# Data from patent US20190375846A1.
# Biological target: human GITR at the cell surface (human) (UniProt Q9Y5U5)
# Experiment: cell-based or functional assay
# Chain of human GITR at the cell surface (human) (Q9Y5U5 26-241): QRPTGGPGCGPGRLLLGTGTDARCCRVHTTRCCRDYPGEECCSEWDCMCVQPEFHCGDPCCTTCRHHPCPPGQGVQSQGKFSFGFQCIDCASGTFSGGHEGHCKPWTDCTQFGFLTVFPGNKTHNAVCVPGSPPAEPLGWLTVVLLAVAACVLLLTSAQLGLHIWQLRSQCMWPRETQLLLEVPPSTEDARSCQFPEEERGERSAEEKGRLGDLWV
substance,measurement,value
HA-tagged human GITRL protein cross-linked with anti-HA tag antibody (from UniProt Q9UNG2 52-177) (ligand),"concentration of maximum signal, GITR agonism reporter assay",1000 to 2000 ng/mL
